Results from patent US20180086832A1 (Johns Hopkins, published 2018).

Tests used:
[1] = target: T1, KRAS(WT)-HLA-A2 (human, biotinylated in the recombinant monomer (site not stated)); test: flow cytometry, peptide-pulsed T2 cells
T1 construct: Monomer in ELISA and off-rate assays; on pulsed T2 cells in flow cytometry and CDC; also called KRAS(WT)-HLA-A2 monomer; KRAS(WT) peptide-pulsed T2 cells

[2] = target: T1, KRAS(WT)-HLA-A2; test: off-rate ELISA on monomer-coated strips
[3] = target: T2, KRAS(WT)-HLA-A3 (human, biotinylated in the recombinant monomer (site not stated)); test: ELISA of purified scFv on monomers, anti-Flag
T2 construct: Monomer in ELISA; also called KRAS(WT)-HLA-A3 monomer; KRAS(WT) control peptide on T2A3 cells

[4] = target: T1, KRAS(WT)-HLA-A2; test: phage ELISA after affinity maturation
[5] = target: T3, ELA control peptide on HLA-A2 (human); test: flow cytometry, peptide-pulsed T2 cells
T3 construct: ELA-pulsed T2 cells; also called negative HLA-A2 control peptide ELA; irrelevant peptide

[6] = target: T4, EGFR(WT)-HLA-A3 (human); test: off-rate ELISA on monomer-coated strips, 22 C
T4 construct: also called EGFR(WT) peptide-pulsed T2A3 cells

[7] = target: T2, KRAS(WT)-HLA-A3; test: flow cytometry, T2A3 cells pulsed with the KRAS(WT) control peptide
[8] = target: T1, KRAS(WT)-HLA-A2; test: ELISA on monomers, anti-human IgG

B1: KRAS G12V_F10 AM#1 (scFv)
scFv: DIQMTQSPSSLSASVGDRVTITCRASQDVNTAVAWYQQKPGKAPKLLIYSASFLYSGVPSRFSGSRSGTDFTLTISSLQPEDFATYYCQQYYYYPPTFGQGTKVEIKRTGGGSGGGGSGASEVQLVESGGGLVQPGGSLRLSCAASGFNINSNYIHWVRQAPGKGLEWVAYITPETGYYHYADSVKGRFTISADTSKNTAYLQMNSLRAEDTAVYYCSRNYYSAYAMDVWGQGTLVTVSS
binding result [1]: no binding

B2: KRAS G12V_F10 AM#2 (scFv)
scFv: DIQMTQSPSSLSASVGDRVTITCRASQDVNTAVAWYQQKPGKAPKLLIYGASFLYSGVPSRFSGSRSGTDFTLTISSLQPEDFATYYCQQYYYYPPTFGQGTKVEIKRTGGGSGGGGSGASEVQLVESGGGLVQPGGSLRLSCAASGFYINSNYIHWVRQAPGKGLEWVAYITPETGYYHYADSVKGRFTISADTSKNTAYLQMNSLRAEDTAVYYCSRNYYSAYAMDVWGQGTLVTVSS
binding result [1]: no binding

B3: KRAS G12V_F10 AM#3 (scFv)
scFv: DIQMSQSPSSLSASVGDRVTITCRTSQDANTAVAWYQQKPGKAPKLLFYSASFLFSGVPSRFSGSRSGTDFTLTISSLQPEDFATYYCQQYYYYPPTFGQGTKVEIKRTGGGSGGGGSGASEVQLVESGGGLVQPGGSLRLSCAASGFNINSNYIHWVRQAPGKGLEWVAYITPETGYYRYADSVKGRFTISADTSKNTAYLQMNSLRAEDTAVYYCSRNYYSAYAMDVWGQGTLVTVSS
binding result [1]: no binding

B4: purified D10-7 scFv (scFv, not shown: small tags and cut ends)
scFv: DIQMTQSPSSLSASVGDRVTIACRASQDVNTAVAWYQQKPGKAPKLLIYSASFLYSGVPSRFSGSRSGTDFTLTISSLQPEDFATYYCQQYYYYPPTFGQGTKVEIKRTGGGSGGGGSGGGASEVQLVESGGGLVQPGGSLRLSCAASGFHINGSYIHWVRQAPGKGLKWVAYIDPETGYSRYADSVKGRFAISADMSKNTAYLQMNSLRAEDTAVYYCSRDSASDAMDVWGQGTLVTVSS
notes: conjugated to an anti-V5 antibody in the CDC assay
binding result [2]: no binding

B5: purified D10 scFv (scFv, not shown: small tags and cut ends)
scFv: DIQMTQSPSSLSASVGDRVTITCRASQDVNTAVAWYQQKPGKAPKLLIYSASFLYSGVPSRFSGSRSGTDFTLTISSLQPEDFATYYCQQYYYYPPTFGQGTKVEIKRTGGGSGGGGSGGGASEVQLVESGGGLVQPGGSLRLSCAASGFNINGSYIHWVRQAPGKGLEWVAYIDPETGYSRYADSVKGRFTISADTSKNTAYLQMNSLRAEDTAVYYCSRDSASDAMDVWGQGTLVTVSS
notes: Flag/His form in ELISA, AlphaScreen and off-rate assays; V5/His form in cell staining and, conjugated 2:1 to an anti-V5 mouse antibody, in the CDC assay
binding result [3]: no binding (tested: 1 µg/mL (top of the dilution series))

B6: clone D10-7 (phage, as tested by ELISA in the affinity maturation) (scFv)
scFv: DIQMTQSPSSLSASVGDRVTIACRASQDVNTAVAWYQQKPGKAPKLLIYSASFLYSGVPSRFSGSRSGTDFTLTISSLQPEDFATYYCQQYYYYPPTFGQGTKVEIKRTGGGSGGGGSGGGASEVQLVESGGGLVQPGGSLRLSCAASGFHINGSYIHWVRQAPGKGLKWVAYIDPETGYSRYADSVKGRFAISADMSKNTAYLQMNSLRAEDTAVYYCSRDSASDAMDVWGQGTLVTVSS
notes: One of eight clones from the error-prone PCR library of D10; not shown: phage display fusion partner used at AxioMx is not described
binding result [4]: no binding

B7: D3E6 phage (scFv)
scFv: DIQMTQSPSSLSASVGDRVTITCRASQDVNTAVAWYQQKPGKAPKLLIYSASFLYSGVPSRFSGSRSGTDFTLTISSLQPEDFATYYCQQYYYYPPTFGQGTKVEIKRTGGGSGGGGSGGGASEVQLVESGGGLVQPGGSLRLSCAASGFNISTSYIHWVRQAPGKGLEWVATIDPNDGYSRYADSVKGRFTISADTSKNTAYLQMNSLRAEDTAVYYCSRTNNTAADAMDVWGQGTLVTVSS
notes: also called EGFR T790M clone 1; not shown: myc tag, TEV cleavage site and full length M13 pIII coat protein
binding result [5]: no binding

B8: purified C9 scFv (scFv)
scFv: DIQMTQSPSSLSASVGDRVTITCRASQDVNTAVAWYQQKPGKAPKLLIYSASFLYSGVPSRFSGSRSGTDFTLTISSLQPEDFATYYCQQYYSYPPTFGQGTKVEIKRTGGGSGGGGSGGGASEVQLVESGGGLVQPGGSLRLSCAASGFNITSSYIHWVRQAPGKGLEWVAYISPEDGYARHADSVKGRFTISADTSKNTAYLQMNSLRAEDTAVYYCSRDDTYYYSAMDVWGQGTLVTVSS
notes: not shown: Flag and His tags
koff [6]: 3e-05 s⁻¹

B9: phage clone C9 (scFv, not shown: large carriers)
scFv: DIQMTQSPSSLSASVGDRVTITCRASQDVNTAVAWYQQKPGKAPKLLIYSASFLYSGVPSRFSGSRSGTDFTLTISSLQPEDFATYYCQQYYSYPPTFGQGTKVEIKRTGGGSGGGGSGGGASEVQLVESGGGLVQPGGSLRLSCAASGFNITSSYIHWVRQAPGKGLEWVAYISPEDGYARHADSVKGRFTISADTSKNTAYLQMNSLRAEDTAVYYCSRDDTYYYSAMDVWGQGTLVTVSS
notes: also called C9 phage
binding result [7]: no binding

B10: D10 MANAbody (antibody, V domains shown)
VH: EVQLVESGGGLVQPGGSLRLSCAASGFNINGSYIHWVRQAPGKGLEWVAYIDPETGYSRYADSVKGRFTISADTSKNTAYLQMNSLRAEDTAVYYCSRDSASDAMDVWGQGTLVTVSS
VL: DIQMTQSPSSLSASVGDRVTITCRASQDVNTAVAWYQQKPGKAPKLLIYSASFLYSGVPSRFSGSRSGTDFTLTISSLQPEDFATYYCQQYYYYPPTFGQGTKVEIK
notes: Complete bivalent antibody made in Expi293 cells; also called full-length D10 MANAbody; D10 antibody
binding result [8]: no binding (tested: 1 µg/mL (top of the dilution series))
